Measured values from patent publication US12168677B2, “Proteins for the treatment of epithelial barrier function disorders” (Genevive, Inc., priority 2017, dated 2024).

Key:
Type in all cases: cell-based, human
TNF-α = TNF-α production by monocytes in co-culture TEER assay (Luminex); details: pre-incubated 6 hours prior to HK E. coli; basolateral supernatant
Procedure: (§1) Production of the cytokines TNF-α, IL-23, and IL-10 by monocytes was measured in the tissue culture supernatant from the basolateral chamber of the co-culture TEER assay performed in Example 1B. Following TEER readings, the supernatants were centrifuged at 10,000 g for 5 minutes at 4° C. to remove cell debris. Luminex analysis was performed according to the manufacturer's instructions (Magpix instrument and xPonent software version 4.2; Luminex Corporation (Austin, TX)). Luminex analysis was performed to determine the […] concentration of TNF-α and IL-23 produced by monocytes. Luminex analysis utilizes a bead-based system for quantification of multiple cytokines from a single sample. Like an ELISA, Luminex beads are coated with a capture antibody, and incubation with samples allows the target to bind to the capture antibody. Beads are washed and incubated with a fluorescently labeled detection antibody for quantification of bound target. Cytometric analysis is used to differentiate bead populations, which are loaded with differential fluorescent dyes, and to quantify cytokine levels by measuring detection antibody signal. TNF-α, IL-23, and IL-10 production in untreated cells and cells pre-incubated with SG-15 for 6 hours prior to HK E. coli treatment was normalized to pg/ml concentrations elicited by HK E. coli only, which was set to 1.0. […] The graphs in FIGS. 2A, 2B and 2C each represent data pooled from an individual experiment (n=3).

IL-10 = IL-10 production by monocytes in co-culture TEER assay (Luminex); details: pre-incubated 6 hours prior to HK E. coli; basolateral supernatant
Procedure: as §1

[1] = test system: HCT8 enterocytes and HT29-MTX goblet cells; experiment: Epithelial cell wound healing (Oris Cell Migration assay); details: SG protein 1 μg/ml, EGF 30 ng/ml, staurosporine 100 nM; 48 hours
From the text: HCT8 enterocytes and HT29-MTX goblet cells were used in wound healing studies. The 96 well Oris Cell Migration assay containing plugs preventing cell attachment in the center of each well was used according to the manufacturer's instructions (Platypus Technologies, Madison, WI). The migration assay plates were warmed to room temperature prior to use and plugs were removed from 100% confluence wells prior to cell addition. The HCT8 enterocyte and HT29-MTX goblet cell lines were used at a 9:1 ratio with a total of 5×10^4 total cells added per well (4.5×10^4 HCT8 cells and 0.5×10^4 HT29-MTX cells). […] Plugs were then removed from all control and sample wells. Control wells included cells treated with the diluent vehicle as the blank, 30 ng/ml epidermal growth factor (EGF) as the positive control, and 100 nM staurosporine as the negative control, all diluted in cRPMI. Sample wells contained SG-15 protein at a concentration of 1 μg/ml diluted in cRPMI. 100% and 0% wells were cultured in cRPMI. […] Prior to staining for viable cells, plugs were removed from the 0% wells. Treatment media was removed and cells were washed in PBS containing 0.9 mM CaCl2) and 0.5 mM MgCl2. […] Relative fluorescent values from 100% wells where plugs were removed prior to cell plating were set as the max effect, and 0% wells where plugs remained in place until immediately before staining were used as the baseline. Samples were normalized between 100% and 0% samples and values expressed as a percent growth.

Molecule | TNF-α production normalized to HK E. coli only (set to 1.0) (TNF-α) | IL-10 production normalized to HK E. coli only (set to 1.0) (IL-10) | Wound healing, percent growth [1]
SG-15: 400 amino acid protein (SEQ ID NO:1) encoded by the genome of Eubacterium eligens (protein, listed as Eubacterium eligens) EYTEIRTASELVEAAKSASGNYKLMTDIDMTGVEWTPWDFSGTFDGNGHSILNLSVKTVSKKTMKTYDGNRKEYKTYGAGFFGVLTGAKVTGLDIYGARIEITTTEPCFAAPIAGLADDSDISDCIIKDTYVSLTDSAKMWGTGGIAGFGSGNLDNITTDVTLVCVDTDAAVRDEQFMGGAYAAGFLNIRNCSITIDGYDSDHGYVHDGGLVGMYMVYPLELSKTYQGEVLNNKVKGMITFFEDNTDRRAYCQANMGEVMNWTYAYSGFTSDFKRNETYDYSVTLLPEMCSNPSYTDVVTEATASDFGYTTHTCSTCGYTYSDTYTIHEHKVDSYSVVKEAASTDKKDGIEAGTCSLCNQTVYREYAANVVTDDNTQATDNKASGTAVKKGMKESTAVFA | 0.91 | 0.66 | significant increase in growth
SG-16: 119 amino acid protein (SEQ ID NO:9) encoded by the genome of Eubacterium eligens (protein, listed as Eubacterium eligens) MTGCSGSKEPDNKTSVDYTVVENADLPEELKKLIESKKDKVMRLTYTTKDYTYVVAGYGTRETSGYSIKVNDVYTGDNALYIDLNLIGPAAGEAVNEVETYPVIVLKMERREESVVFKM | 1.29 | 1.23 | significant increase in growth
SG-17: 327 amino acid protein (SEQ ID NO:13) encoded by the genome of Eubacterium eligens (protein, listed as Eubacterium eligens) CNSKIDVKYDYNVEDYVQLGQYENISVQVDKTSIENELIESKIKQDVEDNTTYTEVDRGAIASDQILVTYTATSSGASLSGLTNTDGKTMILGTDTLGLELDELDQALYGMTPGQTKILIVDIPEDYSSDLYKGTRVVFELTMQTVAQANVPMITNAYVKEAFGYDTVEEYRQSIKESLETDINSKVENKIQEDVLSSLQDTFKISSYPDSLMEETRSRLETSIGFYADFSNLSKDEYCQKQYGLSFDDFVKKSVVQQLIMEAIVKDRNMTMREYDYKGSLDDFAADNGYSNADTFVEKFGKDKIVKAMLVQKAQDYVIEHANISYK | 0.73 | 0.51 | significant increase in growth
SG-18: 267 amino acid protein (SEQ ID NO:19) encoded by the genome of Clostridium bartlettii sp. nov. (protein, listed as Clostridium bartlettii) EVDSSKEQATSKDEKQVVVATSVAITEILDRLGVEVSGVPQTSYELPESAKGATEIGSPMNPDMEIIKSLNPTDVICVDTLGSDFEKQFEENNINADFYNLSNVDGLKETIAALGEKFNKQDKANEILDEIKEVENKVNSNKKSDDKILVLFGAPGSVMVATDKSYIGNLVELAGGNNIFSNATSSFTQINLEEIIKLNPDKILVMTHAVPEAAKKSVEEELSKDLWKNVNAVKNNDITYLENGYFGMSANLQIVEAVEKLGDILYE | 1.06 | 0.93 | slight increase in growth
